The test system of the series is MS2 coat protein. Briefly: apparent KD of MS2 coat protein; designed switch direction (-1 OFF switch, 1 ON switch): -1; higher = weaker reporter binding. The method, boiled down: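 On Illumina chips, designed RNA switches with common flanks were made by stalled E. coli RNA polymerase. Titrations with SNAP-549-labelled MS2 coat protein, doubling from 0.7 or 1.5 nM to 3 µM, were done with no input, with 200 uM small-molecule ligand, or with an oligonucleotide input. Apparent KD is the median per design over clusters, from curve fits of normalised cluster fluorescence.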

[1] abbreviates: Eterna round: R95, input ligand: microRNA oligo, concentration not stated.
The mark [2] stands for this setting: input ligand: microRNA oligo, concentration not stated.
[3] abbreviates: Eterna round: R95, input ligand: FMN 200 uM.
Where [4] appears, read: Eterna round: R95, input ligand: none.

Regarding “CCGCCUGGAUAGGAUAUAGAGCUUUGAGAGGUCCUAGAAGGGUCCACAUGAGGAUCACCCAUGUCACAAUAUCG [Eternabot (L1) Solution 71] (Eterna round: R97, puzzle: Exclusion 6)”, the “apparent KD of MS2 coat protein” value is, setting by setting: (input ligand: FMN 200 uM) 28 nM; (input ligand: none) 29.6 nM.
The corresponding values for “CCGCUACAUGAGGAUCACCCAUGUCAGGAUAUCGUACGUUCGUCGAAAGACGAUCGUACGAGAAGGGUGAGCGG [Eli x1 4.38] (Eterna round: R97, puzzle: Exclusion 1)” are 138 nM and 187 nM.
The corresponding values for “CCGCUGCAAGGAUAUACUUGCGGUGGUGUUCGAGUUCUUCUACUUGAGGAUCACCCAAGUAGAAGGUGCAAAAC [jl-ex2.4.56 ViennaUCT mod] (Eterna round: R97, puzzle: Exclusion 2)” are 12.6 nM and 13.5 nM.
In the case of “CCGGAAAGGGAGGAUAUAGGAGUCGAUAGACACCUAGAAGGCCUGACAUGAGGAUCACCCAUGUGUCCUACCGG [Fiskers Ex 6 - 91] (puzzle: Exclusion 6)”, the “apparent KD of MS2 coat protein” value under setting [1] amounted to 13.7 nM.
The same measure, in the same setting: the value for “CCGGAAAUGAAGGAUAUAGGAGUCGAUAGACUCCUAGAAGGUCAUACAUGAGGAUCACCCAUGUGUCCUACCGG [Fiskers Ex 6 - 74] (puzzle: Exclusion 6)” was 12.9 nM.
On the same count and under the same terms, the value for “CCGGAAAUGAAGGAUAUAGGCGUCGAUAGACUCCUAGAAGGUCAUACAUGAGGAUCACCCAUGUGUCCUACCGG [Fiskers Ex 6 - 75] (puzzle: Exclusion 6)” was 14.7 nM.
As for “CCGGAAAUGAAGGAUAUAGGUGUCGAUAGACUCCUAGAAGGUCAUACAUGAGGAUCACCCAUGUGUCCUACCGG [Fiskers Ex 6 - 76] (Eterna round: R96, puzzle: Exclusion 6)”, the “apparent KD of MS2 coat protein” value turned out to be 36.7 nM (input ligand: FMN 200 uM), 13.3 nM under setting [2] and 18 nM (input ligand: none).
Turning to “CCGGAAAUGAAGGAUAUAGGUGUCGAUAGACUCCUAGAAGGUCAUACAUGAGGAUCACCCAUGUGUCCUACCGG [Fiskers Ex 6 - 76] (puzzle: Exclusion 6)”, the “apparent KD of MS2 coat protein” value under setting [1] was found to be 15.6 nM.
“CCGGAAGUACAGGAUAUCGUAACGGAGACGUUACGAGAAGGGUAUACAUGAGGAUCACCCAUGUGUCCUACCGG [Mat - Exclusion 6 - Eli Mod - D94] (puzzle: Exclusion 6)”: the “apparent KD of MS2 coat protein” value was found to be 33.8 nM under setting [3], 22 nM under setting [1] and 32.2 nM under setting [4].
For “CCGGAUAUGCAGGAUAUCGUAUCGGAAACGAUACGAGAAGGGUAUACAUGAGGAUCACCCAUGUGCCUUACCGG [Fiskers Ex 6 - 19] (puzzle: Exclusion 6)”, the “apparent KD of MS2 coat protein” value under setting [1] came out at 16 nM.
Regarding “CCGGAUAUGCAGGAUAUCGUAUCGGAGACGAUACGAGAAGGGUAUACAUGAGGAUCACCCAUGUGUCCUACCGG [Mat - Exclusion 6 - Eli Mod - D84] (puzzle: Exclusion 6)”, under setting [1], the “apparent KD of MS2 coat protein” value was 22.2 nM.
In the case of “CCGGCGUGGUGCGGUAGUUGUACGACAUGAGGAUCACCCAUGUAGGAUAUGCGCGUGGUCGCGCCGCAGAAGGACAACGUUUGG [Random, 20% A] (Eterna round: R96, puzzle: Exclusion NG 3)”, the “apparent KD of MS2 coat protein” value amounted to 19.6 nM (input ligand: FMN 200 uM), 14.6 nM under setting [2] and 23.9 nM (input ligand: none).
In the case of “CCGGUAUAGGAGGAUAUAGGAGUCGAUAGACACCUAGAAGGCCUGACAUGAGGAUCACCCAUGUGUCCUACCGG [Fiskers Ex 6 - 96] (puzzle: Exclusion 6)”, the “apparent KD of MS2 coat protein” value under setting [1] came out at 15.9 nM.
In the case of “CCGUAGUCAGGAUAUACAUGAGGAUCACCCAUGUAAAAUUUUAAUUUAAUUUGAAGGUGUAGAAGGGACCAGUC [Ex3 #27] (Eterna round: R97, puzzle: Exclusion 3)”, the “apparent KD of MS2 coat protein” value (input ligand: FMN 200 uM) came out at 34.9 nM and the “apparent KD of MS2 coat protein” value (input ligand: none) worked out at 33.3 nM.
“CCGUCACAUGAGGAUCACCCAUGUCAGGAUAUCUAUCAUAGCAUCGAAAGAUGCGGGUAGAGAAGGGACUAUCC [ChP Ext 10-04-2015 #7] (puzzle: Exclusion 1)”: the “apparent KD of MS2 coat protein” value under setting [1] turned out to be 20.3 nM.
Same read-out and setting: the value for “CCGUGGCAAGGAUAUACAUAGGAGAGGAAGGCAAGAGGUGGACAUGAGGAUCACCCAUGUAGAAGGUGCAGAUC [JR_Exclu2_Sub027] (puzzle: Exclusion 2)” was 157 nM.
For “CCGUGGCAAGGAUAUACGUAGGAGAGGAAGGCAAGAGGAGGACAUGAGGAUCACCCAUGUAGAAGGUGCAGAUC [JR_Exclu2_Sub029] (puzzle: Exclusion 2)”, the “apparent KD of MS2 coat protein” value reads like this: under setting [3], 62.3 nM; under setting [1], 77.4 nM; under setting [4], 94.5 nM.
As to “CCGUUCCGUGUAGGAUAUUGGCCCACCACGGGCCGAGAAGGACAUGAGGAUCACCCAUGUAUGCUAUUAUCGCGCGUGGCGCCC [Design 100] (Eterna round: R96, puzzle: Exclusion NG 1)”, the “apparent KD of MS2 coat protein” value runs as follows: (input ligand: FMN 200 uM) 148 nM; under setting [2], 14.8 nM; (input ligand: none) 24.2 nM.
Consider “CCGUUGUCAGGAUAUCGUGCAUACAACGAAAGUUCUAUGUGCGAGAAGGGACAUGAGGAUCACCCAUGUUACGG [Omei Ex4 A1] (Eterna round: R97, puzzle: Exclusion 4)”, for which the “apparent KD of MS2 coat protein” value reads like this: (input ligand: FMN 200 uM) 90.3 nM; (input ligand: none) 41.2 nM.
For “CCUAAAUCCUAGGAUAUGCUAGACGAAAGUCUAGCAGAAGGAGGAACAUGAGGAUCACCCAUGUGUCCUAUAGG [Mat - Exclusion 6 - Eli Mod - D31] (Eterna round: R97, puzzle: Exclusion 6)”, the “apparent KD of MS2 coat protein” value (input ligand: FMN 200 uM) was 20.6 nM and the “apparent KD of MS2 coat protein” value (input ligand: none) came to 16.5 nM.
“CCUAGUUGGUAAGGAUAUCCUACACUAUUCUGACCCGUGCAAGCUACAUGAGGAUCACCCAUGUGGGAGAAGGUGCGUUAACGU [Design 9] (Eterna round: R96, puzzle: Exclusion NG 2)”: the “apparent KD of MS2 coat protein” value is, setting by setting: (input ligand: FMN 200 uM) 31.2 nM; under setting [2], 23.4 nM; (input ligand: none) 26.7 nM.
As for “CCUCAGUAAGGAUAUCAGCUUAGUAGGUUGGUAAUGAGAGCUGAGAAGGUACAUGAGGAUCACCCAUGUUAGUU [JL Zatite mod 10] (puzzle: Exclusion 4)”, the “apparent KD of MS2 coat protein” value under setting [1] was 28.8 nM.
“CCUCCACAUGAGGAUCACCCAUGUCAGGAUAUAGGAUUGCUAUCAUGAGAGGAUGGCGUUAGAAGGGACAUCAC [Eternabot (L1) Solution 69] (Eterna round: R97, puzzle: Exclusion 1)”: the “apparent KD of MS2 coat protein” value reads like this: (input ligand: FMN 200 uM) 44.5 nM; (input ligand: none) 40 nM.
“CCUCCACAUGAGGAUCACCCAUGUCAGGAUAUCGUGUGUGCGUUUUCGGUCUUUCGUGCGAGAAGGGACGUCUG (puzzle: Exclusion 1)”: the “apparent KD of MS2 coat protein” value under setting [1] stood at 52.7 nM.
In the case of “CCUCCCUGAGGAUAUCCACCCUCAUACAUGAGGAUCACCCAUGUUCAUCCGUGGGUACCCGGAGAAGGCAGAUCUC [Megrez-b] (Eterna round: R97, puzzle: Exclusion 5)”, the “apparent KD of MS2 coat protein” value reads like this: (input ligand: FMN 200 uM) 81 nM; (input ligand: none) 85.9 nM.
Regarding “CCUCCGGUGCGAGGAUAUCUGGCGGCCGCCGGUGGAGAAGGCGUACAUGAGGAUCACCCAUGUCCAGCGUGCUCCUCGCUGGUU [0.15] (Eterna round: R96, puzzle: Exclusion NG 1)”, the “apparent KD of MS2 coat protein” value (input ligand: FMN 200 uM) was determined as 75 nM, the “apparent KD of MS2 coat protein” value under setting [2] was 19.9 nM and the “apparent KD of MS2 coat protein” value (input ligand: none) was 31 nM.
With “CCUCGACAUGAGGAUCACCCAUGUAAGGAUAUAAGUGCAGAGGGCGCGUAAUUAAUCGUGAGAAGGUACAACAC (Eterna round: R97, puzzle: Exclusion 1)”, the “apparent KD of MS2 coat protein” value was 32.1 nM (input ligand: FMN 200 uM) and 31.1 nM (input ligand: none).
Regarding “CCUCGACAUGAGGAUCACCCAUGUCAGGAUAUUGUGUCUCGGGUUUUUUACCGAAAGGCGAGAAGGGAUGUGUG [LRO-Excl1-12] (puzzle: Exclusion 1)”, the “apparent KD of MS2 coat protein” value under setting [1] amounted to 13.9 nM.
Still for that read-out and setting: the value for “CCUCGACAUGAGGAUCACCCAUGUCAGGAUAUUGUGUCUCGGGUUUUUUACCGAUAGGCAAGAAGGGAUGUGUG [LRO-Excl1-13] (puzzle: Exclusion 1)” was 21.5 nM; that for “CCUCGACAUGAGGAUCACCCAUGUCAGGAUAUUGUGUUUCGGGUUUUUUACCGUUAGGCAAGAAGGGAUGUGUG [LRO-Excl1-15] (puzzle: Exclusion 1)” was 25.1 nM.
For the sequence “CCUCGUUGGGAGGAUAUCCUUUAGAUUGGAGGAGGAGAAGGCUCGACAUGAGGAUCACCCAUGUGGGAUUUCCC [-24.6, -21.9 kcal, A 23%] (Eterna round: R97, puzzle: Exclusion 6)”, the “apparent KD of MS2 coat protein” value is, setting by setting: (input ligand: FMN 200 uM) 127 nM; (input ligand: none) 35.6 nM.
Take “CCUCUACAUGAGGAUCACCCAUGUCAGGAUAUCGUGUGUUUUUUUUCGGCCGCGCGUGCGAGAAGGGACGUCUU (Eterna round: R96, puzzle: Exclusion 1)”: the “apparent KD of MS2 coat protein” value amounted to 35.2 nM (input ligand: FMN 200 uM), 26 nM under setting [2] and 36.2 nM (input ligand: none).
For “CCUCUACAUGAGGAUCACCCAUGUCAGGAUAUCGUGUGUUUUUUUUCGGCCGCGCGUGCGAGAAGGGACGUCUU (puzzle: Exclusion 1)”, under setting [1], the “apparent KD of MS2 coat protein” value was determined as 30.1 nM.
Turning to “CCUCUACAUGAGGAUCACCCAUGUGAGGAUAUCCUGCGAGGAUCAAAAGAUCCUCGUGGGAGAAGGCAUAUGAA [Omei Ex1 A1] (Eterna round: R97, puzzle: Exclusion 1)”, the “apparent KD of MS2 coat protein” value reads like this: (input ligand: FMN 200 uM) 34.3 nM; (input ligand: none) 22.9 nM.
The like results for “CCUCUACAUGAGGAUCACCCAUGUGAGGAUAUCCUGCGAGGAUCAAAAGAUCCUCGUGGGAGAAGGCAUAUGCA [Omei Ex1 A5] (Eterna round: R97, puzzle: Exclusion 1)” were, in that order, 22.2 nM and 21 nM.

Source of the values: the supplement of paper PMC9170038.
